Measurements: the supplement of paper PMC9170038

Tested on: MS2 coat protein
Assay: apparent KD of MS2 coat protein; designed switch direction (-1 OFF switch, 1 ON switch): 1; higher = weaker reporter binding
How it was run: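 The apparent KD reported per design is the median over clusters of curve fits to normalised cluster fluorescence. The RNA switches were transcribed on Illumina chips by stalled E. coli RNA polymerase. SNAP-549-labelled MS2 coat protein was titrated from 0.7 or 1.5 nM, doubling up to 3 µM, in Tris-HCl pH 7.5 buffer containing KCl, MgCl2, BSA, DTT, tRNA and Tween-20, with no input, 200 uM small-molecule ligand, or an oligonucleotide input.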

[1] = Eterna round: R95, input ligand: FMN 200 uM
[2] = Eterna round: R95, input ligand: microRNA oligo, concentration not stated
[3] = Eterna round: R95, input ligand: none
[4] = input ligand: microRNA oligo, concentration not stated

## CGUCGCUGUCGAGAGGAUAUGCGGUGAUGGACAUGAGGAUCACCCAUGUUAGCGAUAGCAUCACGGUAGAAGGCUCUUACGACUG [Soteed Omei mod 24] (puzzle: Same State 2)
[1]
  apparent KD of MS2 coat protein: 12.6 nM
[2]
  apparent KD of MS2 coat protein: 20 nM
[3]
  apparent KD of MS2 coat protein: 26.8 nM

## GUUACAUGAGGAUCACCCAUGUAUGUGUGGGAGUAAGUGUCUUAGGAUAUCUAUCAUUAAAUUUAAGAGAAGGAAGAUUGUUGU [JMF's solution 91] (Eterna round: R96, puzzle: Same State NG 3)
Input ligand: FMN 200 uM
  apparent KD of MS2 coat protein: 105 nM
[4]
  apparent KD of MS2 coat protein: 84.7 nM
Input ligand: none
  apparent KD of MS2 coat protein: 121 nM

## AAUUCAAACAGAGGAUAUUGUUUAUCUCUAUUGCAAGAAGGCUGAUCUUACUACCCACUUAUGAAACAUGAGGAUCACCCAUGU [JR_SSNG1_Sub018] (Eterna round: R96, puzzle: Same State NG 1)
[4]
  apparent KD of MS2 coat protein: 30.1 nM

## GACAAGCAGGCUUUUUUCUCGUAGUGUAAACAUGAGGAUCACCCAUGUGCCCGCCCUGGAUCUUUGGAUCGCAGGAA [Onlari] (puzzle: Sensor for hsa-mir-208a)
[1]
  apparent KD of MS2 coat protein: 36.4 nM
[2]
  apparent KD of MS2 coat protein: 14.5 nM
[3]
  apparent KD of MS2 coat protein: 35.5 nM

## AAAUAAUAGGCAGGAUAUGGGAAAGGAAGUGUACCAGAAGGGCCGCAACUCAAUACAACAUGAGGAUCACCCAUGUUAGUGUCG [PowerStrip SSNG 1.5] (Eterna round: R96, puzzle: Same State NG 1)
Input ligand: FMN 200 uM
  apparent KD of MS2 coat protein: 10.2 nM
[4]
  apparent KD of MS2 coat protein: 14.9 nM
Input ligand: none
  apparent KD of MS2 coat protein: 15.7 nM

## UAAUUAAGUCAAGGAUAUCACGUCGAAUAGACGUGAGAAGGUGAUUAAUACAUGAGGAUCACCCAUGUAAUACAUGAAUAAUUA [SSNG1/11-B1] (Eterna round: R96, puzzle: Same State NG 1)
Input ligand: FMN 200 uM
  apparent KD of MS2 coat protein: 38.3 nM
[4]
  apparent KD of MS2 coat protein: 61.6 nM
Input ligand: none
  apparent KD of MS2 coat protein: 70.8 nM

## UAUAAACAUGAGGAUCACCCAUGUAAUAAUAUGGGAGGAUAUCAGAAUUUAUUUAUUUAAUGAGAAGGCCUAAUAU [Mat - Same State 1 - Mod of Eli - D67] (Eterna round: R96, puzzle: Same State 1)
[4]
  apparent KD of MS2 coat protein: 440 nM

## GAAAUAAUGUAAGGAUAUACAUGAGGAUUUCUCGUAGAAGGUACAAGACAUGAGGAUCACCCAUGUGUCGCUCCGUAGAGCGUA [Mat - Same State NG 1 - JL mod - D14] (Eterna round: R96, puzzle: Same State NG 1)
[4]
  apparent KD of MS2 coat protein: 125 nM

## GGUCCAGCCUGAGCUGGACGGUAGUAUGUACAUGAGGAUCACCCAUGUCAUGUAGAAGUUACUUGUUCGUCUUGAAC [SENSOR #1] (puzzle: Sensor for hsa-mir-208a)
[1]
  apparent KD of MS2 coat protein: 15.1 nM
[2]
  apparent KD of MS2 coat protein: 13.3 nM
[3]
  apparent KD of MS2 coat protein: 14.9 nM

## CUGUGUUGCGGGCAGGAUAUGUAUUGGAAUACAUGAGGAUCACCCAUGUGCGGGUGUUUCACCCGACAGAAGGGCCAAUCGCGAC [JL-ss2-3.21 ViennaUCT mod] (puzzle: Same State 2)
[2]
  apparent KD of MS2 coat protein: 266 nM

## CAGUGCUGUUGAGAGGAUAUGCGGCGACGGACAUGAGGAUCACCCAUGUUAGCGACAGCGUUGCGGCAGAAGGCUCUGCCCACUG [Soteed Omei mod 49] (puzzle: Same State 2)
[2]
  apparent KD of MS2 coat protein: 8.8 nM

## GCGUUUAACGUAGGAUAUCGACCUACAUGAGGAUCACCCAUGUCUUUGUAAAGUUUUUUUAAUUACGAGAAGGACGUUUUGCAU [JR_SSNG2_Sub071] (Eterna round: R96, puzzle: Same State NG 2)
Input ligand: FMN 200 uM
  apparent KD of MS2 coat protein: 40.3 nM
[4]
  apparent KD of MS2 coat protein: 89.6 nM
Input ligand: none
  apparent KD of MS2 coat protein: 107 nM

## GCUAGAAUUAAAGCCAACAUGAGGAUCACCCAUGUAUGUUGGUAGGAUAUCGUUUGCAAAGCAAACGAGAAGGGCUAAACUAGC [Mat - Same State NG 3 - JL Mod - D16] (Eterna round: R96, puzzle: Same State NG 3)
Input ligand: FMN 200 uM
  apparent KD of MS2 coat protein: 97.9 nM
[4]
  apparent KD of MS2 coat protein: 80.2 nM
Input ligand: none
  apparent KD of MS2 coat protein: 93.8 nM

## GCAGGACGAUAAAACAUCUCACAUGAGGAUCACCCAUGUCGUGAGGAUAUGGAUCCUAAUUGGAUCCAGAAGGCAUGGUCCUGC [Fiskers NG3ss - 24] (Eterna round: R96, puzzle: Same State NG 3)
Input ligand: FMN 200 uM
  apparent KD of MS2 coat protein: 13.2 nM
[4]
  apparent KD of MS2 coat protein: 13.1 nM
Input ligand: none
  apparent KD of MS2 coat protein: 20.9 nM

## GCUAGAAUUAAUGCUAACAUGAGGAUCACCCAUGUAUGUUGGCAGGAUAUCGUUUGCAAAGCAAACGAGAAGGGCCAUACUAGC [Mat - Same State NG 3 - JL Mod - D25] (Eterna round: R96, puzzle: Same State NG 3)
Input ligand: FMN 200 uM
  apparent KD of MS2 coat protein: 8.26 nM
[4]
  apparent KD of MS2 coat protein: 27.3 nM
Input ligand: none
  apparent KD of MS2 coat protein: 21.3 nM

## GUUACAUGAGGAUCACCCAUGUAUGUGUGGGAGUAAGUGUCUUAGGAUAUCUAUUAUUUAAUGUAAGAGAAGGAAGAUUGUUGU [JMF's solution 24] (Eterna round: R96, puzzle: Same State NG 3)
[4]
  apparent KD of MS2 coat protein: 106 nM

## AUAAAACAUGAGGAUCACCCAUGUCAACAAAGUCUAGGAUAUGGGCAAAUAAAAUAAGAACCAGAAGGCGAAUAAU [salish99_ss1_r3_051] (puzzle: Same State 1)
[1]
  apparent KD of MS2 coat protein: 167 nM
[2]
  apparent KD of MS2 coat protein: 177 nM
[3]
  apparent KD of MS2 coat protein: 178 nM

## GGAGCCGGCACUGAGGAUAUUCAUUUUAAAACAUGAGGAUCACCCAUGUAGGCCAGAAGGCCUUGGGAGAAGGCAGGUCGGCCCG [Bibimoar - 6] (puzzle: Same State 2)
[1]
  apparent KD of MS2 coat protein: 18.4 nM
[2]
  apparent KD of MS2 coat protein: 190 nM
[3]
  apparent KD of MS2 coat protein: 271 nM

## AAGCCUGUAGCACAGGAUAUCCGAGGCAAAACAUGAGGAUCACCCAUGUCAAACGAAAAUCCGAAGGAGAAGGGUGAACAGGCUC [Laarededqu] (puzzle: Same State 2)
[1]
  apparent KD of MS2 coat protein: 10.9 nM
[2]
  apparent KD of MS2 coat protein: 7.83 nM
[3]
  apparent KD of MS2 coat protein: 8.24 nM

## UUCUCUCUGGUAGGAUAUGUAGGAUAUGUACAUGAGGAUCACCCAUGUCAGUUAAUGACAGAAGGAUAGAAGGACCAGAUCUCU [pwkr ssNG2 2FMN 1F5s.2] (Eterna round: R96, puzzle: Same State NG 2)
Input ligand: FMN 200 uM
  apparent KD of MS2 coat protein: 115 nM
[4]
  apparent KD of MS2 coat protein: 72.4 nM
Input ligand: none
  apparent KD of MS2 coat protein: 127 nM

## UGUUUGUUGUGAGGAUAUACAUACACCUUACAUGAGGAUCACCCAUGUUGUUACUUUGAUAGUUAGUAGAAGGCACUUGGUUAU [JR_SSNG2_Sub047] (Eterna round: R96, puzzle: Same State NG 2)
Input ligand: FMN 200 uM
  apparent KD of MS2 coat protein: 94.9 nM
[4]
  apparent KD of MS2 coat protein: 91.6 nM
Input ligand: none
  apparent KD of MS2 coat protein: 140 nM

## CGUCCGGCCUGUGCUGGCCGGUAGCUUGUACAUGAGGAUCACCCAUGUUCAUGUGCUGGCUUUUUGCUCGUCUUGUG [salish99_mir208a_017] (puzzle: Sensor for hsa-mir-208a)
[1]
  apparent KD of MS2 coat protein: 283 nM
[2]
  apparent KD of MS2 coat protein: 27.2 nM
[3]
  apparent KD of MS2 coat protein: 419 nM

## AGGGAGGAUGCAGGAUAUACAAGACAUGAGGAUCACCCAUGUACCUUGUGGAGAAGAAAGGAGAGGUAGAAGGGUAGUGAGGAA [Default title] (Eterna round: R96, puzzle: Same State NG 2)
Input ligand: FMN 200 uM
  apparent KD of MS2 coat protein: 11.7 nM
[4]
  apparent KD of MS2 coat protein: 13 nM
Input ligand: none
  apparent KD of MS2 coat protein: 16.4 nM

## GUGGCCCAGGCACAGGAUAUGUUUCUCGUAACAUGAGGAUCACCCAUGUGCCUAUGAGAUUUAAUGCAGAAGGGUGCACGCCACG [Atiinbe] (Eterna round: R96, puzzle: Same State 2)
Input ligand: FMN 200 uM
  apparent KD of MS2 coat protein: 18.2 nM
[4]
  apparent KD of MS2 coat protein: 61.3 nM
Input ligand: none
  apparent KD of MS2 coat protein: 103 nM
